From patent US9212226B2, “Amino acid sequences directed against CXCR4 and other GPCRs and compounds comprising the same” (Ablynx N.V., priority 2008, dated 2015)

Target: CXCR4 (Homo sapiens, UniProt P61073)
Assay: [125I]-238D2 competition binding on membranes from HEK293T cells transiently expressing CXCR4
Procedure: HEK293T cells were maintained at 37° C. in a humidified 5% CO2, 95% air atmosphere in Dulbecco's modified Eagle's medium (DMEM) containing 2 mM L-glutamine, 50 IU/ml penicillin, 50 μg/ml streptomycin, and 10% (v/v) fetal calf serum. Jurkat cells were cultured in a humidified 5% CO2, 95% air atmosphere in a 1:1 mixture of Dulbecco's modified Eagle's medium (DMEM) and Ham's F12 medium containing 2 mM L-glutamine, 50 IU/ml penicillin, 50 μg/ml streptomycin, and 10% (v/v) fetal calf serum. […] [^125 I]-Labelling— Radiolabeling of Nanobodies with ^125I was performed using the Iodo-gen method (Pierce, Rockford, Ill.) according to the manufacturer's protocol. ^125I-labeled Nanobodies was separated from free iodine (>99%) using a Sephadex G-25 gel filtration column (Amersham Biosciences, Piscataway, N.J.). […] Competition Binding Assays— Membranes from HEK293T cells transiently expressing CXCR3 or CXCR4 were prepared 48 h after transfection as follows. Cells were washed and scraped from the cell culture dishes with ice-cold PBS containing 1 mm EDTA. The scraped cells were pelleted at 1500×g for 10 min at 4° C. The pellet was washed and then resuspended in ice-cold membrane buffer (15 mM Tris, pH 7.5, 1 mM EGTA, 0.3 mM EDTA, and 2 mM MgCl2). The cell suspension was homogenized by 10 strokes at 1200 rpm using a Teflon-glass homogenizer and rotor and further subjected to three freeze-thaw cycles using liquid nitrogen. Membranes were separated by centrifugation at 40,000 g for 25 min at 4° C. The membrane pellet was washed and resuspended in ice-cold Tris-sucrose buffer (20 mM Tris, pH 7.4, and 250 mM sucrose) and frozen in liquid nitrogen. The total protein was determined using a Bradford assay (Bio-Rad). […] Membranes were then harvested over polyethylenimine (0.5%)-treated Whatman GF/C filter plates and washed three times with ice cold binding buffer containing 500 mM NaCl. Plates were counted by liquid scintillation. Inositol Phosphate Accumulation Assay— 24 hours post transfection with pcDNA3.1-CXCR4 and pcDNA1-HA-mG {alpha} qi5 (see Verzijl et al, 2008 supra), 250.000 cells were seeded into 24-wells plates and labelled overnight using inositol-free minimal essential medium supplemented with 1 μCi myo-[2-^3H]-inositol. The next day, the cells were washed once to remove not incorporated myo-[2-^3H]-inositol. […] In agonist experiments, the cells were directly stimulated with test compounds and LiCl (10 mM) in assay buffer for 2 h at 37° C. The stimulation was stopped by aspirating the stimulation medium and adding ice-cold 10 mM formic acid. The accumulated inositol phosphates were isolated by anion exchange chromatography and counted by liquid scintillation. CRE Reporter Gene Assay— HEK239T cells were transfected with pCRE/β-galactosidase (Chen W, Shields T S, Stork P J S, Cone R D (1995) Anal Biochem 226:349-354) and plasmids (pcDEF3 or pcDNA3.1) encoding the indicated receptors. 40,000 transfected cells per well were seeded into 96 well plates and grown in DMEM supplemented with 10% fetal calf serum. The medium was replaced 32 h after transfection by serum-free DMEM supplemented with 0.5% bovine serum albumin and ligands as indicated. […] The β-galactosidase activity was determined by the measurement of absorption at 420 nm with a PowerwaveX340 plate reader (Bio-Tek Instruments Inc., Winooski, Vt.) after incubation with the assay buffer when the OD420 value for forskolin (3 μM) controls reached 0.4-0.6. Chemotaxis Assay— The chemotactic responsiveness of Jurkat 3D cells was assessed using ChemoTx™ plates (Receptor Technologies Ltd., Oxon, UK) in which a upper cell-containing compartment is separated from a lower chemoattractant-containing compartment by a polyvinylpyrollidone-free polycarbonate filter with 5-μm pores. Cells were harvested, washed and resuspended in RPMI containing 0.5% bovine serum albumin and then loaded to 150,000 cells per well in a volume of 25 μl into the upper compartment of the chemotaxis chamber.

[1] = membranes from HEK293T cells transiently expressing CXCR4, mean ± S.E.M.

Sequence of CXCR4 (P61073 whole entry): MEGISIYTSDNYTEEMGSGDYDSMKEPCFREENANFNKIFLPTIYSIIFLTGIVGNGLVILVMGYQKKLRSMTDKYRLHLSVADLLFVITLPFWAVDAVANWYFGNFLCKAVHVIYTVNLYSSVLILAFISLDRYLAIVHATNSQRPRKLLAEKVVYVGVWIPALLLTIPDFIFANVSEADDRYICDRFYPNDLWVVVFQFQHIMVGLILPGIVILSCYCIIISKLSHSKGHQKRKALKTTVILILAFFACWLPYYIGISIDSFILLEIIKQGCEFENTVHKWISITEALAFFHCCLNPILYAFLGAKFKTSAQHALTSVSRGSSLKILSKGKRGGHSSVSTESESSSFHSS

displacement of [125I]-238D2 from CXCR4 ([125I]-238D2 3 nM)	Displacem. (%) of [125I]-238D2 (maximal displacement) [1]	pKi, [125I]-238D2 [1]	Molecule
full displacement	101 ± 1%		238D4: Nanobody (VHH) raised against human CXCR4, SEQ ID NO: 239 (protein, Nanobody, Nanobody constructs or fragments thereof) VHH: EVQLMESGGGLVQAGGSLRLSCAASGRTFNNYAMGWFRRAPGKEREFVAAITRSGVRSGVSAIYGDSVKDRFTISRDNAKNTLYLQMNSLKPEDTAVYTCAASAIGSGALRRFEYDYSGQGTQVTVSS
	97 ± 6%	8.41 ± 0.11	238D2: Nanobody (VHH) raised against human CXCR4, SEQ ID NO: 238 (protein, Nanobody, Nanobody constructs or fragments thereof) VHH: EVQLVESGGGLVQTGGSLRLSCAASGFTFSSYAMSWVRQAPGKGLEWVSGIKSSGDSTRYAGSVKGRFTISRDNAKNMLYLQMYSLKPEDTAVYYCAKSRVSRTGLYTYDNRGQGTQVTVSS
